What was measured:
[1] = system: bacterial adenylate kinase; test: AK reduction by different proteases over time for different organisms; assay type: biochemical; conditions: 37° C., 10 to 120 minutes; trypsin 1000, papain 10, proteinase K 2.5, chymotrypsin 1 U/ml
Method: • 1. Bacteria were scraped from plates and inoculated in approximately 20 ml of broth only. These were incubated overnight at 37° C. • 2. 10× stocks of the enzymes were prepared in broth only: • a. 10 mg of 16,000 U/mg Trypsin added to 16 ml of broth to give 10,000 U/ml (10×) stock. • b. 25 mg of 4 U/mg Papain added to 1 ml of broth to give 100 U/ml (10×) stock. • c. 10 mg of 7.5 U/mg proteinase K added to 3 ml of broth to give a 25 U/ml (10×) stock. • d. 10.5 ul of 239 U/ml chymotrypsin added to 239.5 ul of broth to give a 10 U/ml stock. • 3. The inoculums were then centrifuged at approximately 14030 RCF for one hour. • 4. The supernatant was then taken, tested for adenylate kinase activity (described below), and diluted with broth only if needed to give about 10^5 cpm/ml. • 5. The supernatant was then assayed for adenylate kinase activity at time point zero in triplicate and averaged. • 6. 1.5 ml solutions of the supernatants were prepared with the correct concentration of enzyme, or broth for control. These were incubated at 37° C. • 7. Samples were then taken and assayed in triplicate for adenylate kinase activity at 10, 30, 60 and 120 minutes. • 8. The triplicates were averaged, and normalised by dividing by the time point zero average. Adenylate Kinase Assay (AK Only No Cells) • 1. […] added to a cuvette. • 2. 50 μl of reagent 1 (ADP only; no lysis agent) added and vortexed briefly. • 3. After 5 minutes, the cuvette was placed into a luminometer. • 4. 50 μl of reagent 2 (dilution and luciferin/luciferase) firmly added directly to the sample. • 5. RLU read immediately.
The results are shown in FIG. 19 (S. epidermis), 20 (S. aureus), 21 (E. coli), 22 (E. faecalis), 23 (P. aeruginosa) and 24 (MRSA). Trypsin is still the protease of choice due to its consistency with both Gram +ve and Gram −ve bacteria.

organisms (11 species) = test: Effect of trypsin on organisms (bacterial growth); assay type: cell-based; conditions: trypsin 1000 and 200 U/ml, 10^3 cfu/ml, 37° C., 3 hours
Method: FIGS. 4 to 14 show bacterial growth in the presence of AK. Bacteria were: (4) E. coli; (5) E. faecalis; (6) P. aeruginosa; (7) S. aureus; (8) K. pneumoniae; (9) E. cloacae; (10) K. oxytoca; (11) P. vulgaris; (12) A. baumanii; (13) S. enteritidis; and (14) S. narcescens.
To assess whether trypsin affects bacterial growth, 10^3 cfu/ml organisms were spiked into 1000, 200 and 0 (control) U/ml trypsin/MH samples. These mixtures were incubated at 37° C. for 3 hours, and aliquots were assayed at time 0, 1, 2 and 3 hours.

[2] = molecular target: Purified AK (B. stearothermophilus) (Geobacillus stearothermophilus, UniProt P27142); test: AK reduction by trypsin over time, purified bacterial AK; assay type: biochemical; conditions: 5000, 1000, 200 U/ml trypsin, 37° C., up to 1 hour; compared with lysed blood AK
Method: (§1) Purified AK (B. stearothermophilus) or a 10^−3 dilution of saponin-lysed blood was incubated for 1 hour at 37° C. in 5000, 1000, 200 and 0 (control) U/ml trypsin diluted in MH broth (‘trypsin/MH’). Aliquots were assayed at time 0, 15 minutes, 30 minutes and 1 hour.

AK in lysed blood = test: AK reduction by trypsin over time, saponin-lysed blood; assay type: biochemical; conditions: 10^−3 dilution of lysed blood, 5000, 1000, 200 U/ml trypsin, 37° C., up to 1 hour
Method: as §1

E. faecalis [3] = test: Trypsin digestion of intracellular bacterial AK, E. faecalis; assay type: cell-based; conditions: assayed immediately
Method: (§2) Experimental work used adenylate kinase-generated ATP to drive a luciferin/luciferase activity, giving results in RLUs as a quantitative measure of initial ATP levels. All AK assays were performed at pH 7.5, and 37° C. Results of the assay were read at ambient temperature.
(§3) Concentrations of 10^4 and 10^5 cfu/ml E. coli and E. faecalis where spiked into MH broth containing 1000, 200 and 0 (control) U/ml trypsin. These were assayed immediately.

[4] = molecular target: bioluminescent system (luciferin/luciferase) (Photinus pyralis, UniProt P08659); test: Trypsin control: effect of trypsin on the bioluminescent system; assay type: biochemical
Method: as §2
In preliminary experiments, the effect of trypsin on the bioluminescent system was assessed. Samples of trypsin at different concentrations, diluted in Mueller-Hinton (MH^+) broth, were spiked with ATP.

E. coli [5] = test: Organism growth against lysed blood background using trypsin, E. coli; assay type: cell-based; conditions: E. coli 10^2 cfu/ml, 10^−1 lysed blood, 1000 U/ml trypsin
Method: (§4) Approximately 10^2 cfu/ml organisms were spiked into a 10^−1 dilution of lysed blood in MH, containing 1000 U/ml trypsin. This was incubated at 37° C. for 4 hours, and aliquots were assayed at time 0, 1, 2, 3 and 4 hours.

E. faecalis [6] = test: Organism growth against lysed blood background using trypsin, E. faecalis; assay type: cell-based; conditions: E. faecalis 10^2 cfu/ml, 10^−1 lysed blood, 1000 U/ml trypsin
Method: as §4

E. coli [7] = test: Trypsin digestion of intracellular bacterial AK, E. coli; assay type: cell-based; conditions: for Mean RLU: assayed immediately
Method: as §2, §3

[8] = system: lysed blood AK background; test: Lysed blood background with trypsin, negative (no organisms); assay type: biochemical; conditions: 10^−1 lysed blood, 1000 U/ml trypsin
Method: as §4

P. aeruginosa = test: Organism growth against lysed blood background using trypsin, P. aeruginosa; assay type: cell-based; conditions: P. aeruginosa 10^2 cfu/ml, 10^−1 lysed blood, 1000 U/ml trypsin
Method: as §4

[9] = system: AK in saponin-lysed blood; test: Trypsin digestion of AK in various concentrations of lysed blood; assay type: biochemical; conditions: 1000 U/ml trypsin
Method: Saponin-lysed blood was serially diluted and mixed with 1000 or 200 U/ml trypsin/MH. The mixtures were incubated at 37° C. for 4 hours, and aliquots assayed at time 0, 1, 2, 3 and 4 hours.

bioluminescent system (luciferin/luciferase), sequence (P08659 whole entry): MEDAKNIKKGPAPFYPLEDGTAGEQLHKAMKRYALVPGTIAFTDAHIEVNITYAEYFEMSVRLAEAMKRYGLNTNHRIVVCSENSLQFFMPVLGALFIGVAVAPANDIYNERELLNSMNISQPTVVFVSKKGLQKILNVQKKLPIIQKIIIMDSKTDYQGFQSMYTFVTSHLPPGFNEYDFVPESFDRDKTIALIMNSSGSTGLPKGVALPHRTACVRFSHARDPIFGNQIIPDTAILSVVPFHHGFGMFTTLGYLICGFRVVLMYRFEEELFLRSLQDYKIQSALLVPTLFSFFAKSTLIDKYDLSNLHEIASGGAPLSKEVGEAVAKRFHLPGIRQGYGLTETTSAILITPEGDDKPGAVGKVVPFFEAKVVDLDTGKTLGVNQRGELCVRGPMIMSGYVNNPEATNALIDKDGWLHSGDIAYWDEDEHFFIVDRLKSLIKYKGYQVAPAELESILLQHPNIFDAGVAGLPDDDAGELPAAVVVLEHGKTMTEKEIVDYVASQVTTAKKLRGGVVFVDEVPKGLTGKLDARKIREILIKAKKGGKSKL
Purified AK (B. stearothermophilus), sequence (P27142 whole entry): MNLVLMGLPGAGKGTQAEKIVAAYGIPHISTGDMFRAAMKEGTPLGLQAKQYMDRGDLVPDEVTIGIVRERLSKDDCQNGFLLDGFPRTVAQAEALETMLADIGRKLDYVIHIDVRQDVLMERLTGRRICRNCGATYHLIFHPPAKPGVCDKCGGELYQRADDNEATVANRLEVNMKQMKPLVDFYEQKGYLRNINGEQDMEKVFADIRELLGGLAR

B1: proteinase K (protein, UniProt P06873 106-384, looked up)
Proteinase K: AAQTNAPWGLARISSTSPGTSTYYYDESAGQGSCVYVIDTGIEASHPEFEGRAQMVKTYYYSSRDGNGHGTHCAGTVGSRTYGVAKKTQLFGVKVLDDNGSGQYSTIIAGMDFVASDKNNRNCPKGVVASLSLGGGYSSSVNSAAARLQSSGVMVAVAAGNNNADARNYSPASEPSVCTVGASDRYDRRSSFSNYGSVLDIFGPGTSILSTWIGGSTRSISGTSMATPHVAGLAAYLMTLGKTTAASACRYIADTANKGDLSNIPFGTVNLLAYNNYQA
notes: protease, 7.5 U/mg, used at 2.5 U/ml
For B1, the “degradation of AK extracted from different organisms” value [1] was “degraded the AK in a similar manner to trypsin”.

B2: Papain (protein, UniProt P00784 134-345, looked up)
Papain: IPEYVDWRQKGAVTPVKNQGSCGSCWAFSAVVTIEGIIKIRTGNLNEYSEQELLDCDRRSYGCNGGYPWSALQLVAQYGIHYRNTYPYEGVQRYCRSREKGPYAAKTDGVRQVQPYNEGALLYSIANQPVSVVLEAAGKDFQLYRGGIFVGPCGNKVDHAVAAVGYGPNYILIKNSWGTGWGENGYIRIKRGTGNSYGVCGLYTSSFYPVKN
notes: protease, 4 U/mg, used at 10 U/ml
For B2, the “degradation of AK extracted from different organisms” value [1] was “degraded the AK in a similar manner to trypsin”.

B3: trypsin (protein, UniProt P00761 9-231, looked up)
Trypsin: IVGGYTCAANSIPYQVSLNSGSHFCGGSLINSQWVVSAAHCYKSRIQVRLGEHNIDVLEGNEQFINAAKIITHPNFNGNTLDNDIMLIKLSSPATLNSRVATVSLPRSCAAAGTECLISGWGNTKSSGSSYPSLLQCLKAPVLSDSSCKSSYPGQITGNMICVGFLEGGKDSCQGDSGGPVVCNGQLQGIVSWGYGCAQKNKPGVYTKVCNYVNWIQQTIAAN
B3 was tested, and the “effect on bacterial growth” value (organisms (11 species)) was “minimal (if any) effect on the organisms”, the “degradation of purified bacterial AK by trypsin” value [2] was “does not occur as dramatically or rapidly as the AK from lysed blood” and the “digestion of AK in lysed blood by trypsin” value (AK in lysed blood) was “digested rapidly”. For the same molecule, the “Mean RLU” value (E. faecalis [3]; E. faecalis 10^4 cfu/ml, trypsin 200 U/ml) was 13,310 RLU, the “Mean RLU” value (E. faecalis [3]; E. faecalis 10^4 cfu/ml, trypsin 1000 U/ml) was 17,369 RLU and the “Mean RLU” value (E. faecalis [3]; E. faecalis 10^5 cfu/ml, trypsin 200 U/ml) was 87,059 RLU. For the same molecule, the “Mean RLU” value (E. faecalis [3]; E. faecalis 10^5 cfu/ml, trypsin 1000 U/ml) was 103,959 RLU, the “Mean RLU” value ([4]; +ATP, trypsin 200 U/ml in MH broth) was 68,036 RLU and the “Mean RLU” value ([4]; +ATP, trypsin 1000 U/ml in MH broth) was 64,005 RLU. The “Mean RLU” value ([4]; +ATP, trypsin 5000 U/ml in MH broth) was 81,276 RLU, the “Mean RLU” value ([4]; No ATP, trypsin 200 U/ml in MH broth) was 646 RLU and the “Mean RLU” value ([4]; No ATP, trypsin 1000 U/ml in MH broth) was 538 RLU. For the same molecule, the “Mean RLU” value ([4]; No ATP, trypsin 5000 U/ml in MH broth) was 414 RLU, the “background ATP-generating activity associated with trypsin” value ([4]; no ATP) was “little or no background ATP-generating activity” and the “effect on bioluminescence signal” value ([4]; trypsin 5000 U/ml) was “boosted”. The “effect on the bioluminescence reaction” value ([4]; trypsin levels ≦1000 U/ml) was “minimal/no effect on the bioluminescence reaction”, the “Mean RLU” value (E. coli [5]; 1 hr) was 9,605 RLU and the “Mean RLU” value (E. coli [5]; 2 hrs) was 7,460 RLU. The “Mean RLU” value (E. coli [5]; 3 hrs) was 41,121 RLU, the “Mean RLU” value (E. coli [5]; 4 hrs) was 353,541 RLU and the “Mean RLU” value (E. coli [5]; Time 0) was “overload”. The “Mean RLU” value (E. faecalis [6]; 1 hr) was 10,099 RLU, the “Mean RLU” value (E. faecalis [6]; 2 hrs) was 4,939 RLU and the “Mean RLU” value (E. faecalis [6]; 3 hrs) was 15,587 RLU. The “Mean RLU” value (E. faecalis [6]; 4 hrs) was 106,762 RLU, the “Mean RLU” value (E. faecalis [6]; Time 0) was “overload” and the “Mean RLU” value (E. coli [7]; E. coli 10^4 cfu/ml, trypsin 200 U/ml) was 7,197 RLU. For the same molecule, the “Mean RLU” value (E. coli [7]; E. coli 10^4 cfu/ml, trypsin 1000 U/ml) was 12,694 RLU, the “Mean RLU” value (E. coli [7]; E. coli 10^5 cfu/ml, trypsin 200 U/ml) was 65,452 RLU and the “Mean RLU” value (E. coli [7]; E. coli 10^5 cfu/ml, trypsin 1000 U/ml) was 106,552 RLU. For the same molecule, the “AK signal from lysed bacteria lost during the AK reaction due to trypsin digestion” value (E. coli [7]; E. coli and E. faecalis, trypsin 200 and 1000 U/ml) was 10-20%, the “Mean RLU” value ([8]; 1 hr) was 7,864 RLU and the “Mean RLU” value ([8]; 2 hrs) was 3,148 RLU. The “Mean RLU” value ([8]; 3 hrs) was 2,001 RLU, the “Mean RLU” value ([8]; 4 hrs) was 1,572 RLU and the “Mean RLU” value ([8]; Time 0) was “overload”. For the same molecule, the “Mean RLU” value (P. aeruginosa; 1 hr) was 8,852 RLU, the “Mean RLU” value (P. aeruginosa; 2 hrs) was 3,582 RLU and the “Mean RLU” value (P. aeruginosa; 3 hrs) was 3,332 RLU. The “Mean RLU” value (P. aeruginosa; 4 hrs) was 8,123 RLU, the “Mean RLU” value (P. aeruginosa; Time 0) was “overload” and the “degradation of AK extracted from different organisms” value [1] was “degraded the AK”. The reduction of background ([9]; 10^−1 dilution of blood, 4 hours) was 25,000 fold, the “background RLU after trypsin digestion” value ([9]; 10^−1 dilution of blood, 4 hours, from approximately 100 million RLU) was 4,000 RLU and the “time in which the vast majority of AK digestion occurs” value [9] was at most 2 h.

Reference: patent US8349583B2, “Distinguishing cells in a sample by inactivating extracellular enzyme before releasing intracellular enzyme” (priority 2005, dated 2013)
